{"source": "the RNAGym collection of RNA variant scans (doi:10.1073/pnas.2313332121)", "parents": {"B1": {"name": "TPR 5TU (parent)", "chain": "GGAUCUUCUCGAUCUAACAAAAAAGACAAAUCUGCCACAAAGCUUGAGAGCAUCUUCGGAUGCAGAGGCGGCAGCCUUCGGUGGCGCGAUAGCGCCAACGUUCUCAACUAUGACACGCAAAACGCGUGCUCCGUUGAAUGGAGUUUAUCAUG"}}, "note": "This sample holds only a part of the variants without activity.", "data": [{"variants_of": "B1", "experiment": "polymerase ribozyme fitness, log enrichment relative to wild type (log ratio); higher = more active; in vitro selection for triplet polymerase activity", "outline": "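Each subunit of a heterodimeric triplet polymerase ribozyme was mutagenized into a library by PCR, transcribed, and subjected to one round of in vitro selection, run in triplicate. Libraries were annealed with a biotinylated primer, the partner subunit and triplets, incubated frozen at −7 °C, and extended constructs were gel-excised, captured on streptavidin beads and recovered by RT-PCR. Input and output libraries were sequenced on Illumina, keeping genotypes with ≥10 input reads and ≥1 read per output. Fitness is log base 2 of genotype enrichment divided by wild-type enrichment, from inverse-variance-weighted replicate averages.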", "values": [{"variant": "U61G G62A C87U", "polymerase ribozyme fitness (log ratio)": -1.28}, {"variant": "A66U G86U C103A A142G", "polymerase ribozyme fitness (log ratio)": "≤ -4.2"}, {"variant": "G59A C103A A107U A110U U111A C118A A138G", "polymerase ribozyme fitness (log ratio)": "≤ -4.2"}, {"variant": "G62C C76U U139G", "polymerase ribozyme fitness (log ratio)": -3.09}, {"variant": "A60G G100A U151G", "polymerase ribozyme fitness (log ratio)": "≤ -4.2"}, {"variant": "U61A C95A", "polymerase ribozyme fitness (log ratio)": -1.41}, {"variant": "G67U C79G", "polymerase ribozyme fitness (log ratio)": "≤ -4.2"}, {"variant": "A60C U101G", "polymerase ribozyme fitness (log ratio)": -1.58}, {"variant": "G59U A107U U127A", "polymerase ribozyme fitness (log ratio)": "≤ -4.2"}, {"variant": "G65A A89U G94U", "polymerase ribozyme fitness (log ratio)": -2.57}, {"variant": "G67A C99U A107U G143C", "polymerase ribozyme fitness (log ratio)": "≤ -4.2"}, {"variant": "G59A G94A", "polymerase ribozyme fitness (log ratio)": -0.522}, {"variant": "G65A C76A A122U", "polymerase ribozyme fitness (log ratio)": -4.06}, {"variant": "U61G G94A C108G", "polymerase ribozyme fitness (log ratio)": "≤ -4.2"}, {"variant": "A60U C93A", "polymerase ribozyme fitness (log ratio)": -3.06}, {"variant": "G59C G86U", "polymerase ribozyme fitness (log ratio)": -1.67}, {"variant": "A66U C93U", "polymerase ribozyme fitness (log ratio)": "≤ -4.2"}, {"variant": "U61A G92C", "polymerase ribozyme fitness (log ratio)": -3.57}, {"variant": "U61A C63U C85G A119U C131A", "polymerase ribozyme fitness (log ratio)": "≤ -4.2"}, {"variant": "A60G C87A U109A C132G", "polymerase ribozyme fitness (log ratio)": "≤ -4.2"}, {"variant": "A60G G94U", "polymerase ribozyme fitness (log ratio)": -0.467}, {"variant": "G59U G68A C96U", "polymerase ribozyme fitness (log ratio)": "≤ -4.2"}, {"variant": "C63U A150U", "polymerase ribozyme fitness (log ratio)": 0.854}, {"variant": "G59A G133U G136C U148C", "polymerase ribozyme fitness (log ratio)": "≤ -4.2"}, {"variant": "G62A G81U C95A G126U", "polymerase ribozyme fitness (log ratio)": 0.493}, {"variant": "G67C A91C", "polymerase ribozyme fitness (log ratio)": "≤ -4.2"}, {"variant": "A66C C103G C108A G117A", "polymerase ribozyme fitness (log ratio)": "≤ -4.2"}, {"variant": "G59U G81A C85G A106C", "polymerase ribozyme fitness (log ratio)": -3.51}, {"variant": "U61A G65A G67C G84U C96G G141U", "polymerase ribozyme fitness (log ratio)": "≤ -4.2"}, {"variant": "G62C G94A G133C G141U", "polymerase ribozyme fitness (log ratio)": -3.95}, {"variant": "A66G G84A G141C", "polymerase ribozyme fitness (log ratio)": "≤ -4.2"}, {"variant": "G62U U145G", "polymerase ribozyme fitness (log ratio)": -0.51}, {"variant": "G62C G92C", "polymerase ribozyme fitness (log ratio)": -3.09}, {"variant": "A66C C85A", "polymerase ribozyme fitness (log ratio)": "≤ -4.2"}, {"variant": "G62A C116U", "polymerase ribozyme fitness (log ratio)": -0.0465}, {"variant": "G58U C105U A106G C149U", "polymerase ribozyme fitness (log ratio)": 0.147}, {"variant": "G59C A138G", "polymerase ribozyme fitness (log ratio)": -3.04}, {"variant": "G59U A60U", "polymerase ribozyme fitness (log ratio)": -0.703}, {"variant": "C63G U90G G94A", "polymerase ribozyme fitness (log ratio)": -3.97}, {"variant": "A64C G71A U144G U148G", "polymerase ribozyme fitness (log ratio)": "≤ -4.2"}, {"variant": "G65C G86C", "polymerase ribozyme fitness (log ratio)": "≤ -4.2"}, {"variant": "C63U C99U C116A", "polymerase ribozyme fitness (log ratio)": 0.561}, {"variant": "C63U A64G G83C", "polymerase ribozyme fitness (log ratio)": "≤ -4.2"}, {"variant": "A60G C96A A121U", "polymerase ribozyme fitness (log ratio)": -0.437}, {"variant": "G67A A73C C87G", "polymerase ribozyme fitness (log ratio)": "≤ -4.2"}, {"variant": "G67U C75A G92A G124U", "polymerase ribozyme fitness (log ratio)": "≤ -4.2"}, {"variant": "A60C G94C A97G A98G U134C", "polymerase ribozyme fitness (log ratio)": -3.8}, {"variant": "G62U C116U", "polymerase ribozyme fitness (log ratio)": 0.138}, {"variant": "A60G A73G C85A", "polymerase ribozyme fitness (log ratio)": -2.02}, {"variant": "G67A C87U", "polymerase ribozyme fitness (log ratio)": -4.13}, {"variant": "A60G C72U G124A", "polymerase ribozyme fitness (log ratio)": 0.612}, {"variant": "A66U G88A U109A A122C", "polymerase ribozyme fitness (log ratio)": "≤ -4.2"}, {"variant": "G62U G136A", "polymerase ribozyme fitness (log ratio)": 0.626}, {"variant": "G59C C96U A106G C132U U145C", "polymerase ribozyme fitness (log ratio)": -0.905}, {"variant": "G59C G94C", "polymerase ribozyme fitness (log ratio)": -0.253}, {"variant": "G59A C76G", "polymerase ribozyme fitness (log ratio)": "≤ -4.2"}, {"variant": "U61A C108U", "polymerase ribozyme fitness (log ratio)": -3.86}, {"variant": "A60U C96G", "polymerase ribozyme fitness (log ratio)": -3.34}, {"variant": "G59U A60G C93U", "polymerase ribozyme fitness (log ratio)": -3.87}, {"variant": "A60G A119C A120U U151C", "polymerase ribozyme fitness (log ratio)": -4.18}, {"variant": "G65A G84U", "polymerase ribozyme fitness (log ratio)": -2.89}, {"variant": "G67C G92U C99U A107U U148A", "polymerase ribozyme fitness (log ratio)": "≤ -4.2"}, {"variant": "G59U A60C G83A C116U C118G", "polymerase ribozyme fitness (log ratio)": -2.5}, {"variant": "A60G C85U U144G", "polymerase ribozyme fitness (log ratio)": 0.543}, {"variant": "G65A G136C A147C", "polymerase ribozyme fitness (log ratio)": -4.13}, {"variant": "G59U A97C", "polymerase ribozyme fitness (log ratio)": -0.238}, {"variant": "A60G G67U G86A", "polymerase ribozyme fitness (log ratio)": -4.13}, {"variant": "U61G C93U G94A U144G", "polymerase ribozyme fitness (log ratio)": "≤ -4.2"}, {"variant": "U61A U78G C95U A107C U148G A150U", "polymerase ribozyme fitness (log ratio)": "≤ -4.2"}, {"variant": "G65C C85U", "polymerase ribozyme fitness (log ratio)": -4.04}, {"variant": "U61G C76A U78C G88C", "polymerase ribozyme fitness (log ratio)": "≤ -4.2"}, {"variant": "G59A A122G U148C", "polymerase ribozyme fitness (log ratio)": -3}, {"variant": "G59C U77A C96G C105U G140A", "polymerase ribozyme fitness (log ratio)": "≤ -4.2"}, {"variant": "U61C C87A", "polymerase ribozyme fitness (log ratio)": "≤ -4.2"}, {"variant": "G59A A106G U134A", "polymerase ribozyme fitness (log ratio)": -2.03}, {"variant": "C63G A98U C99U", "polymerase ribozyme fitness (log ratio)": 0.639}, {"variant": "G62U C72U C93U A122G", "polymerase ribozyme fitness (log ratio)": -3.31}, {"variant": "G59C A73G G86U", "polymerase ribozyme fitness (log ratio)": -2.26}, {"variant": "A60G C85A", "polymerase ribozyme fitness (log ratio)": -0.96}, {"variant": "U61G C95G U135C", "polymerase ribozyme fitness (log ratio)": -4.17}, {"variant": "U61G G83A", "polymerase ribozyme fitness (log ratio)": -1.01}, {"variant": "A60G A110G G136A", "polymerase ribozyme fitness (log ratio)": -2.56}, {"variant": "A60G C114U", "polymerase ribozyme fitness (log ratio)": -1.83}]}]}
